# Target: pim1_human PIM1 (UniProt P11309)
row,effect of a mutation on the interaction,Substance
1,increasing interaction,Small ribosomal subunit protein eS19 (Homo sapiens) (from UniProt P39019) R56Q
2,increasing interaction,Small ribosomal subunit protein eS19 (Homo sapiens) (from UniProt P39019) R62W
3,decreasing interaction,Small ribosomal subunit protein eS19 (Homo sapiens) (from UniProt P39019) R101H
